Assay results as given in patent US9988424 (DUKE UNIVERSITY, dated 2018).

Legend:
C.CAP206 gp140CF.12 = C.CAP206 gp140CF.12 (HIV-1); assay: ELISA, OD405
B.62357 140C = target: T1, B.62357 140C; assay: ELISA, OD405
T1 construct: also called B.62357 gp140C

C.1086 gp140 = target: T2, C.1086 gp140; assay: ELISA, OD405
T2 construct: also called C.1086gp140C

B.HXB/BAL gp140CFI = target: T3, B.HXB/BAL gp140CFI (HIV-1, UniProt P04578 33-680); assay: ELISA, OD405
T3 construct: also called B.HxB/Ba gp140 CFI

B. 681-7 gp140C = assay: ELISA, OD405
B.040 gp140C = assay: ELISA, OD405
AE.97CNG2XF gp140CF = target: T4, AE.97CNG2XF gp140CF (HIV-1); assay: ELISA, OD405
T4 construct: also called E.97CNGX2F gp140CF

G.con gp140CF = target: T5, G.con gp140CF; assay: ELISA, OD405
T5 construct: also called G.con.env03 gp140CF

B.con gp140CF [1] = target: T6, B.con gp140CF; assay: ELISA, OD405
T6 construct: also called B.con.env03 gp140CF

Con 6 gp120 = assay: ELISA, OD405
B. 684-6 gp140C = assay: ELISA, OD405
B.63521 gp140C = assay: ELISA, OD405
B.9021 gp140C = B.9021 gp140C (HIV-1); assay: ELISA, OD405
AE.con gp140CF = target: T7, AE.con gp140CF; assay: ELISA, OD405
T7 construct: also called AE.con.env03 gp140CF

[2] = target: T8, AE.A244 V1/V2 tags, natively deglycosylated (HIV-1); assay: ELISA
T8 construct: also called AE.A244V1V2 tags Degly

SIV CPZ US-1 gp140CF = target: T9, SIV CPZ US-1 gp140CF (SIVcpz); assay: ELISA, OD405 at 10 ug/ml
T9 construct: also called US-1 SIVCPZ gp140CF
T9 chain: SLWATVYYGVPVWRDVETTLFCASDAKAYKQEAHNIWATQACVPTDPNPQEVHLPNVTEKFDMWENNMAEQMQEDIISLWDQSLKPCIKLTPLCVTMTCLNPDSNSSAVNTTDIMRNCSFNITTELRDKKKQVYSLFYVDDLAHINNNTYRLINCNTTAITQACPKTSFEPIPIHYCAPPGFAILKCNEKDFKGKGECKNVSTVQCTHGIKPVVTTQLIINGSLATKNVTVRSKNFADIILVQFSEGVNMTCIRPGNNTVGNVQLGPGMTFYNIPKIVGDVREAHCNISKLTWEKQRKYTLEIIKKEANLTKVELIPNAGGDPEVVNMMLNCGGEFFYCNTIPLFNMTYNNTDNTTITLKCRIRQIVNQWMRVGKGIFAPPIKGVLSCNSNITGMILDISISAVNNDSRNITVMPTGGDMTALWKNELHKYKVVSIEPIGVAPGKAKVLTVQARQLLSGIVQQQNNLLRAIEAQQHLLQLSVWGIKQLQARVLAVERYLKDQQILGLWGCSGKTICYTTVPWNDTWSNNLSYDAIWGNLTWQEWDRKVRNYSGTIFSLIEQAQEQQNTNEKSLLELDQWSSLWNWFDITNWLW

J08 B.HXB2/BALV1V2 = target: T10, J08 B.HXB2/BALV1V2 (HIV-1); assay: ELISA, OD405 at 10 ug/ml
T10 construct: also called J08 B.HXB/BAL V1V2
T10 chain: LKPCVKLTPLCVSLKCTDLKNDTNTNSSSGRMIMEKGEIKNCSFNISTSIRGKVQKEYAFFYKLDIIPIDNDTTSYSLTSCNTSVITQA

C.1086 V1V2 Tags = C.1086 V1V2 Tags (HIV-1); assay: ELISA, OD405 at 10 ug/ml
A.9004SS V1/V2 tags = target: T11, A.9004SS V1/V2 tags; assay: ELISA, OD405 at 10 ug/ml
T11 V1V2 tags construct: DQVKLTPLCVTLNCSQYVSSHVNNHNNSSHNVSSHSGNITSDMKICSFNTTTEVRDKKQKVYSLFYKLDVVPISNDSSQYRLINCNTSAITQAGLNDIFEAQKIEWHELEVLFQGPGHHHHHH

B.62357 gp140C = target: T12, B.62357 gp140C; assay: ELISA, OD405 at 10 ug/ml
T12 construct: also called B.62357 140C

B.con gp140CF [3] = assay: ELISA, OD405 at 10 ug/ml
AE.A244 gD+ gp120 N160K = target: T13, AE.A244 gD+ gp120 N160K (HIV-1); assay: ELISA
T13 construct: domain: gp120

B1: CH58 reverted unmutated ancestor antibody (antibody, V domains shown)
VH: EVQLVQSGAEVKKPGESLKISCKGSGYSFTSYWIGWVRQMPGKGLEWMGIIYPGDSDTRYSPSFQGQVTISADKSISTAYLQWSSLKASDTAMYYCARLGGRYYYDSSGYYYFDYWGQGTLVTVSS
VL: NFMLTQPHSVSESPGKTVTISCTRSSGSIASNYVQWYQQRPGSSPTTVIYEDNQRPSGVPDRFSGSIDSSSNSASLTISGLKTEDEADYYCQSYDSSSWVFGGGTKLTVL
notes: also called CH58 RUA; CH58_RUA
B1: no binding (tested: 10 ug/ml) (C.CAP206 gp140CF.12); no binding (tested: 10 ug/ml) (B.62357 140C); no binding (tested: 10 ug/ml) (C.1086 gp140). B1: no binding (tested: 10 ug/ml) (B.HXB/BAL gp140CFI); no binding (tested: 10 ug/ml) (B. 681-7 gp140C); no binding (tested: 10 ug/ml) (B.040 gp140C). B1: no binding (tested: 10 ug/ml) (AE.97CNG2XF gp140CF); no binding (tested: 10 ug/ml) (G.con gp140CF); no binding (tested: 10 ug/ml) (B.con gp140CF [1]). B1: no binding (tested: 10 ug/ml) (Con 6 gp120); no binding (tested: 10 ug/ml) (B. 684-6 gp140C); no binding (tested: 10 ug/ml) (B.63521 gp140C). B1: no binding (tested: 10 ug/ml) (B.9021 gp140C); no binding (tested: 10 ug/ml) (AE.con gp140CF).

B2: 697D (antibody, V domains shown)
VH: QVQLVQSGAEVKKPGSSVKVSCKASGGNFNTYTISWVRQAPGQGLEWMGRIIPIFGIVNPAQKFPGRVTINVDKSTNTAYMELSSLRSEDTAVYYCATSGVGLHFGYFDYWGQGTQVTVSS
VL: QSVLTQPPSVSGAPGQRVTISCTGSSSNIGAHYDVHWYQQLPGTAPKLLIYGNSNRPSGVPDRFSGSKSGTSASLAITGLQAEDEADYYCQSYDSSLSGYVFGTGTKVTVL
notes: also called mAb 697D; V2 conformational mAb 697D
For B2, the “fold decrease of binding against the glycosylated protein” value [2] was 6 fold.

B3: PG16 (antibody, V domains shown)
VH: QEQLVESGGGVVQPGGSLRLSCLASGFTFHKYGMHWVRQAPGKGLEWVALISDDGMRKYHSDSMWGRVTISRDNSKNTLYLQFSSLKVEDTAMFFCAREAGGPIWHDDVKYYDFNDGYYNYHYMDVWGKGTTVTVSS
VL: QSALTQPASVSGSPGQTITISCNGTSSDVGGFDSVSWYQQSPGKAPKVMVFDVSHRPSGISNRFSGSKSGNTASLTISGLHIEDEGDYFCSSLTDRSHRIFGGGTKVTVL
notes: also called mAb PG16; bnAb PG16
B3: no binding (tested: 10 ug/ml) (SIV CPZ US-1 gp140CF); no binding (tested: 10 ug/ml) (J08 B.HXB2/BALV1V2); no binding (tested: 10 ug/ml) (C.1086 V1V2 Tags). B3: no binding (tested: 10 ug/ml) (A.9004SS V1/V2 tags); no binding (tested: 10 ug/ml) (B.62357 gp140C); no binding (tested: 10 ug/ml) (B.con gp140CF [3]).

B4: CH59 (antibody, V domains shown)
VH: EVQLVESGGGLVQPGRSLRLSCAASGFTFDDGAMHWVRQAPGKGLEWVSGISWNSNIIAYADSVKGRFTISRDNAKNSLYLEMNSLRVEDTALYYCAKDSPRGELPLNYWGQGTLVTVSS
VL: SYELTQPPSVSVSPGQTARITCSGDALPKNYAYWYQQKSGQAPVLVIYEDSKRPSGIPERFSGSSSGTMATLTISGAQVEDEADYYCYSTDSSGNHRVFGGGTKLTVL
notes: also called mAb CH59
Binder B4 has an EC50 (AE.A244 gD+ gp120 N160K) of 0.03 nM.
